Experimental data reported in patent US20250369044.

Columns and labels:
[1] = system: C-MBP dimer (MBP variant with a cysteine on the third residue, disulfide-linked N-terminus to N-terminus homodimer)
[2] = system: MBP-1 (His-tagged Maltose Binding Protein with C-terminal leader: polyglycine stall, polyarginine capture, ssrA recognition motif)
[3] = system: MBP-C chemically tagged on its C-terminal cysteine with the maleimide Peptide-2 tag
[4] = system: mNG-HTH (mNG with a helix-turn-helix blocking domain and ssrA tag)
[5] = system: mNG-alpha_helix (mNG with an alpha-helical blocking domain and ssrA tag)
[6] = system: mNG-beta_hairpin (mNG with a hairpin blocking domain and ssrA tag)
[7] = system: {MBP}-{MBP-1}, genetic fusion protein of two MBP proteins (805 amino acids, 88 kDa)

Q: Which “nanopore read of the disulfide-linked dimer with ClpX and ATP in cis” value [1] does the source give for “E. coli ClpX, N-terminal truncated variant (residues 61-423)” here?
A: The value was “After reading the first monomer of C-MBP, the unfoldase was able to pass through the disulfide bond, after which it reads the second C-MBP monomer in the N- to C-terminus direction”.

Q: What about the “ClpX controlled translocation with 1M KGlu in cis and 1 M KCl in trans” value [2] of the same substance?
A: The value was “ClpX controlled MBP-1 translocations were obtained from CytK 4D2E nanopores systems with 1M KGlu in the cis and 1 M KCl in trans”.

Q: And the “ClpX-controlled translocation of MBP-1 through the nanopore (ionic current)” value [2]?
A: The value was “clear and consistent capture and subsequent ClpX-controlled translocation of MBP-1 was observed”.

Q: And the “rate of ClpX translocating along the polypeptide” value [2]?
A: Its value is “about 12-15 aa/second in these conditions”.

Q: And the “trans-to-cis ClpX controlled translocation (ionic current)” value [2]?
A: The value was “characteristic ClpX controlled MBP-1 translocation events occurred trans-to-cis”.

Q: What about the “translocation with 2.5 mM Gamma-S-ATP in place of ATP” value [2] of the same substance?
A: The value was “long blockades that never progressed to the changing current levels phase associated with ClpX translocase controlled movement of polypeptide that was observed under regular ATP conditions”.

Q: What about the “ClpX controlled translocation of tagged MBP (ionic current)” value [3] of the same substance?
A: Its value is “ClpX controlled MBP translocations (marked by arrows) are evident from the characteristic pattern of changing ionic current signals”.

Q: What about the “fluorescence over time at 37° C. after adding ClpX and ATP” value (shortened to “fluorescence over time”) [4] of the same substance?
A: Its value is “no decrease in fluorescence”.

Q: And the “fluorescence over time” value [5]?
A: The value was “no decrease in fluorescence”.

Q: And the “fluorescence over time” value [6]?
A: Its value is “no decrease in fluorescence”.

Q: What about the “full length single-molecule reads with ClpX and ATP in cis” value [7] of the same substance?
A: Its value is “full length reads of the protein were reliably obtained”.
